Measurements as given in patent US20230212549A1, “COMPOUNDS COMPRISING A […] LIGAND AND USE THEREOF” (priority 2021, published 2023).

What was measured:
[1] = target: human fibroblast activating protein (FAP) on WI-38 fibroblasts (human) (UniProt Q12884); assay: competitive FACS on WI-38 cells vs 3 nM Cy5-labeled peptide; pIC50 category D = ≤6.0
[2] = target: fibroblast activation protein (FAP) on FAP-expressing human WI-38 fibroblasts (human) (UniProt Q12884); assay: competitive FACS, WI-38 cells, vs Cy5 tracer m3; D = pIC50 <=6.0
[3] = target: human fibroblast activation protein (FAP) on WI-38 fibroblasts (human) (UniProt Q12884); assay: competitive FACS, WI-38 cells, Cy5-labeled peptide as competitor
[4] = target: delta (DOP) (h) (human) (UniProt P41143); assay: reference compound of the radioligand binding assay (Ki Ref)
delta (DOP) (h) (human), sequence (P41143 whole entry, stated change not applied): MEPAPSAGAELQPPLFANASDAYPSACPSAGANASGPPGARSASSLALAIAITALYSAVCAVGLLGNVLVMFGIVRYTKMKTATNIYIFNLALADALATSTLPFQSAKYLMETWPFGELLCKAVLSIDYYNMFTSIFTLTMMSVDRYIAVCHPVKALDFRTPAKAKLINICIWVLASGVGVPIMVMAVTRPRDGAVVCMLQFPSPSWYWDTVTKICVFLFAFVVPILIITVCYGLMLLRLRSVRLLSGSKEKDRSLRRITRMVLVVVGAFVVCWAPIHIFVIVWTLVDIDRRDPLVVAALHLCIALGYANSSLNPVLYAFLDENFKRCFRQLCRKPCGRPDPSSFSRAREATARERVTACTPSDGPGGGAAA

[5] = target: mu (MOP) (h) (human) (UniProt P35372); assay: as above
mu (MOP) (h) (human), sequence (P35372 whole entry): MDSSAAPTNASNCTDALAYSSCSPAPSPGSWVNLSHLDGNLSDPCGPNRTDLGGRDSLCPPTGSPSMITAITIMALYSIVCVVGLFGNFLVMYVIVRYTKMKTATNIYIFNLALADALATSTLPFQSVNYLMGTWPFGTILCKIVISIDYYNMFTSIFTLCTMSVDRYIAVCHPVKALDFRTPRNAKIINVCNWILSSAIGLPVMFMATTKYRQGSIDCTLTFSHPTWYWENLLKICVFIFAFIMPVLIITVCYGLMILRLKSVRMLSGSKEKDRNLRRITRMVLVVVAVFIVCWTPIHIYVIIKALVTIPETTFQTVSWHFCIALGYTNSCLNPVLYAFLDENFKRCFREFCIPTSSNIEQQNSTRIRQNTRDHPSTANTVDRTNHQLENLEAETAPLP

Substance | pIC50 Category (FACS) [3] | also measured
N4Ac-PPAc-Bal--Nle-[C(3MeBn)-PPTEFC]-OH (peptide) | – | pIC50 [1]: < 6 pic50
DOTA-Ttds-Hci-[Cys(3MeBn)-Pro-Pro-Thr-Gln-Phe-Cys]-Bal-OH (peptide) | – | pIC50 Category (FACS) [2]: < 6 pIC50
N4Ac-Ttds-Glu(AGLU′)-Nle-[Cys-(3MeBn)-Pro-Pro-Thr-Gln-Phe-Cys]-OH (peptide) | < 6 pIC50 | –
H-Ava-[Cys(3MeBn)-Pro-Pro-Thr-Gln-Phe-Cys]-NH2 (peptide) | < 6 pIC50 | –
Ac-Aad-[Cys(3MeBn)-Pro-Pro-Thr-Gln-Phe-Cys]-NH2 (peptide) | < 6 pIC50 | –
DPDPE (peptide) | – | Ki [4]: 1200 pM
DAMGO (peptide) | – | Ki [5]: 370 pM

Continued, in another order:

pIC50 Category (FACS) [3] | Substance | also measured
< 6 pIC50 | H-Ahx-[Cys(3MeBn)-Pro-Pro-Thr-Gln-Phe-Cys]-NH2 (peptide) | –
< 6 pIC50 | N4Ac-gGlu-Nle-[Cys-(3MeBn)-Pro-Pro-Thr-Gln-Phe-Cys]-OH (peptide) | –
< 6 pIC50 | H-Gab-[Cys(3MeBn)-Pro-Pro-Thr-Gln-Phe-Cys]-NH2 (peptide) | –
